Laboratory results: PMC3107197

Molecular target: GFP-tagged Fab1p (yeast) [yeast]
Test: co-immunoprecipitation (IP: Fab1p-GFP), densitometry
Details: Bound fraction; parent: 1

## myc-tagged Fig4p (wildtype, yeast) mutant I59T [yeast] / GFP-tagged Fab1p (yeast) [yeast] chain 1 I59T
  ratio to parent: 0.4
